Test in all cases: SPR
(Surface plasmon resonance follows binding to a sensor surface in real time, without labels.)

The target in data set [1] is T1, AML1 Runt domain (UniProt Q01196 1-188).
Data set [2] deals with AML1 Runt domain V170A (UniProt Q01196 1-188, V170A).
Data set [3] has as its target T1, AML1 Runt domain. This is another data set of the same source.

T1 sequence (Q01196 1-188): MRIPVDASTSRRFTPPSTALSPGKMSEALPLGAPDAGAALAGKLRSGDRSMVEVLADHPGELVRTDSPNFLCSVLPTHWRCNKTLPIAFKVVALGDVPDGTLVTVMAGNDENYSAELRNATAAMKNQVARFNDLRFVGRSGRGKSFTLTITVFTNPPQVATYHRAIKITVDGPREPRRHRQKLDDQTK
AML1 Runt domain V170A, sequence (Q01196 1-188 V170A): as the sequence (Q01196 1-188) above, with V170A counted along it

B1: RDE (dsDNA)
DNA 1: GTCGTTTGCGGTTTGGGGAAAAAAAAAAAAAAAAA
DNA 2: TCCCCAAACCGCAAACGAC
What is called Kd is the free concentration of one partner at which half of the binding sites on the other are occupied at equilibrium, for simple one-to-one binding. In the case of B1, the Kd in data set [1] stood at 9.6 ± 0.2 nM. Also, the binding result in data set [2] is “binds”. Turning to GGGAUGGACGACCCACCACGGCGAGGUAUCCCAUCCC (structured_RNA) [Apt1-S], the Kd in data set [1] was 0.99 ± 0.02 nM. For the same molecule, the binding result in data set [2] is “binds”. Regarding GGGAUGGACGAGCCACCACGGCGAGCUAUCCCAUCCC (structured_RNA) [Apt1-S C12G-G26C], the binding result in data set [1] is given as “binds”.

Turning to GGGAUGGACGACCCACCACGGCGCGGUAUCCCAUCCC (structured_RNA) [Apt1-S A24C], the binding result in data set [1] is “binds”. On the same count and under the same terms, under GGGAUGGACGACCCACGAAAGCGAGGUAUCCCAUCCC (structured_RNA) [Apt1-S GAAA loop] stands “binds”. The same measure, in the same setting: next, GGGAUGGACGACCCACUUUUGCGAGGUAUCCCAUCCC (structured_RNA) [Apt1-S UUUU loop]: “binds”; GGGAUGGACGACCCACCACGGCGUGGUAUCCCAUCCC (structured_RNA) [Apt1-S A24U]: “binds”.

B2: Apt1-S double-stranded (1-18 / 19-37) (dsRNA)
RNA 1: GGGAUGGACGACCCACCA
RNA 2: CGGCGAGGUAUCCCAUCCC
With B2, the binding signal in data set [3] was ~20 fold reduction in affinity vs Apt1-S.

Values taken from PMC3683927.
